{"source": "patent US20250346683A1", "about": "(AstraZeneca / MedImmune, published 2025)", "target": "T1, human endothelial lipase (EL) (human, UniProt Q9Y5X9 21-500)", "T1 construct": "also called human EL; LIPG gene product", "T1 sequence (looked up)": "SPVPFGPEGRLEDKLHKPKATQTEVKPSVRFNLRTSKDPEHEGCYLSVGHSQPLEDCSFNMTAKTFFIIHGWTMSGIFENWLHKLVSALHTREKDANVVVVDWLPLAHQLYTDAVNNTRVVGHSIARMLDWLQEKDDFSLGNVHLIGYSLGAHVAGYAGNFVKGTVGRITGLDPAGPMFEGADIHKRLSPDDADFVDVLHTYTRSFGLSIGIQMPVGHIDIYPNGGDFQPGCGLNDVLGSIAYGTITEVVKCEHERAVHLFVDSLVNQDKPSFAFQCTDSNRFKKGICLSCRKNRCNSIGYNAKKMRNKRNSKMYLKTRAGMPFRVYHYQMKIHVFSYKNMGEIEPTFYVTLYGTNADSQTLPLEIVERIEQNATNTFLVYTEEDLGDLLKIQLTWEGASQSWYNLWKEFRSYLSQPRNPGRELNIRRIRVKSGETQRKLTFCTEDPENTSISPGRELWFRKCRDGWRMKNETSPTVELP", "test": "sandwich ECL immunoassay (MSD): MEDI5884 coated as capture, EL from plasma or reference standard as analyte, biotinylated anti-human EL antibody (OriGene) as detection", "description": "Sandwich immunoassay was developed for the detection human EL utilizing ECL readout. An MSD (MesoScale Discovery) plate was coated with 5 μg/ml of MEDI5884, at 50 μl/well, incubated at 4° C. on a flat surface and subsequently washed 3× with 300 μl/well of ELISA Wash Buffer. The assay plate(s) were blocked with 150 μl/well of I Block Buffer (IBB) for ≥60 min on an orbital plate shaker at room temperature (RT). Reference standards (RS), quality control (QC) and negative control (NC), prepared in IBB, and test samples were added to the plates at 35 μl/well. Samples that had been previously tested determined the minimally required dilution ratio (MRD) as two (2) for plasma samples. The assay plate(s) were incubated at RT on a plate shaker with gentle shaking for 60 minutes±10 minutes. Unbound analyte was removed by washing the plate(s) with ELISA wash buffer. To detect the captured analyte, 1 μg/ml of biotinylated anti-human EL monoclonal antibody (OriGene) was added at 35 μl/well and incubated for an additional 60 minutes±10 minutes at RT on a plate shaker. Unbound detection antibody was removed by washing the plate(s). […] Plates were washed again and Read Buffer was added at 150 μl/well. Signal was read on a MSD sector imager instrument within 20 minutes of addition of the Read Buffer. […]", "data": [{"binder": "MEDI5884 (antibody, human IgG4 S228P, kappa, V domains shown, It was coated on the MSD plate as the capture reagent) VH: QVQLVQSGSELKKPGASVKVSCKASGYTFTNYALNWVRQAPGQGLEWMGWINTYSGVGTYAGEFKGRFVFSLDTSVSTAYLQISSLKAEDTAVYYCARRGFYGRRFFDVWGKGTTVTVSS VL: DIQLTQSPSSLSASVGDRVTITCKASQSVDYDVDSYMHWYQQKPGKAPKLLIYAASNLASGVPSRFSGSGSGTDFTFTISSLQPEDIATYYCQQTIEDPPTFGGGTKVEIKR", "values": [{"measurement": "binding result", "value": "binds"}]}]}
